In patent US8778303B2, “99mTc-labeled 19 amino acid containing peptide for use as phosphatidylethanolamine binding molecular probe and radiopharmaceutical” (The Medical College of Wisconsin, Inc., priority 2008, dated 2014):
“Also recorded” adds a separate entry of the source.

Legend:
[1] = Stability of purified radiotracer in aqueous solution; type: physicochemical; details: once purified
Description: HPLC method 2. Jupiter C18 column (90 Å pore size, 250×4.6 mm) was used with a buffered mobile phase system consisting of phosphate buffer (10 mM sodium phosphate, pH 6.7) and acetonitrile at a flow rate of 1.0 ml/min at room temperature. A baseline of 5 min at 90% buffer A (phosphate buffer, pH6.7) and 10% buffer B (acetonitrile) was followed by a linear gradient to 10% buffer A and 90% buffer B in 30 min. The level of radioactivity in the HPLC elute was monitored by gamma counting at an energy window of 140±15 keV.
HYNIC-Duramycin was labeled with ^99mTc using the tricine-phosphine co-ligand system. Specifically, 15 μg of HYNIC-Duramycin was mixed with 40 mg of tricine, 1 mg of TPPTS and 20 μg SnCl2 in 0.8 ml at pH 5.3. The labeling was initiated with the addition of about 1 mCi of ^99mTc. The incubation was allowed to proceed for 40 min at room temperature. The final radiopharmaceutical, ^99mTc-HYNIC-Duramycin, was analyzed and purified using HPLC method 2. After purification, acetonitrile was removed by evaporation under nitrogen, and ^99mTc-HYNIC-Duramycin was reconstituted in saline for usage. ^99mTc-HYNIC-Duramycin^1 was synthesized in the same fashion. For stability tests, cysteine challenge was carried out at a cysteine-to-^99mTc-Duramycin ratio of 100 to 1, in 0.01 mM phosphate buffer (pH 6.8) for 2 hr at room temperature. The sample was analyzed with radioHPLC (method 2).

[2] = Biodistribution studies in healthy rats; type: in vivo, rat
Description: Biodistribution studies. […] Dynamic whole-body biodistribution profile was acquired using an in-house gamma camera (GE XRT). The anesthetized animal was continuously imaged at an energy window of 140±15 keV, field of view 22.5×22.5 cm, matrix 128×128, at 1 min per image for up to 60 min post-injection.
For quantitative biodistribution, at each designated time point after intravenous injection of radiolabeled Duramycin, including 0, 1, 5, 15, 30, and 60 min, a group of 4 rats were sacrificed. Various tissues were dissected, rinsed in saline, weighed, and the level of radioactivity was determined using direct gamma counting (140±15 keV).

acute cardiac cell death = experiment: In vivo imaging of acute cardiac cell death, rat model of ischemia and reperfusion
AMI = experiment: Window of detection for AMI, planar imaging and autoradiography; type: in vivo, rat

## CC(C)=NNc1ccc(C(=O)NCCCC[C@@H]2NC(=O)[C@@H](N)CS[C@@H](C)[C@H]3NC(=O)[C@H](CC(N)=O)NC(=O)CNC(=O)[C@H]([C@@H](O)C(=O)O)NC(=O)[C@@H]4CSC[C@@H](NC(=O)[C@H](CCC(N)=O)NC2=O)C(=O)N[C@H]2CS[C@@H](C)[C@@H](NC(=O)[C@H](Cc5ccccc5)NC(=O)[C@@H]5CCCN5C(=O)CNC(=O)[C@H](Cc5ccccc5)NC(=O)[C@H](CNCCCC[C@@H](C(=O)O)NC3=O)NC2=O)C(=O)N[C@@H](Cc2ccccc2)C(=O)N[C@@H](C(C)C)C(=O)N4)cn1 [^99mTc-HYNIC-Duramycin, metal not drawn]
[1]
  time with no significant level of detached 99mTc detected: at least 24 hrs
[2]; Sprague Dawley, rat, 2.3 nmole, total radioactivity, Bone, healthy rats, intravenous, 60 min post-injection (n=4)
  tissue uptake at 1 h: 0.04 ± 0.01 %ID/g
[2]; Sprague Dawley, rat, 2.3 nmole, total radioactivity, Brain, healthy rats, intravenous, 60 min post-injection (n=4)
  tissue uptake at 1 h: 0.01 ± 0.01 %ID/g
[2]; Sprague Dawley, rat, 2.3 nmole, total radioactivity, Colon, healthy rats, intravenous, 60 min post-injection (n=4)
  tissue uptake at 1 h: 0.11 ± 0.01 %ID/g
[2]; Sprague Dawley, rat, 2.3 nmole, total radioactivity, Fat, healthy rats, intravenous, 60 min post-injection (n=4)
  tissue uptake at 1 h: 0.06 ± 0.06 %ID/g
[2]; Sprague Dawley, rat, 2.3 nmole, total radioactivity, Heart, healthy rats, intravenous, 60 min post-injection (n=4)
  tissue uptake at 1 h: 0.21 ± 0.16 %ID/g
[2]; Sprague Dawley, rat, 2.3 nmole, total radioactivity, Kidney, healthy rats, intravenous, 60 min post-injection (n=4)
  tissue uptake at 1 h: 2.32 ± 0.48 %ID/g
[2]; Sprague Dawley, rat, 2.3 nmole, total radioactivity, Liver, healthy rats, intravenous, 60 min post-injection (n=4)
  tissue uptake at 1 h: 0.28 ± 0.01 %ID/g
[2]; Sprague Dawley, rat, 2.3 nmole, total radioactivity, Lung, healthy rats, intravenous, 60 min post-injection (n=4)
  tissue uptake at 1 h: 0.12 ± 0.05 %ID/g
[2]; Sprague Dawley, rat, 2.3 nmole, total radioactivity, Muscle, healthy rats, intravenous, 60 min post-injection (n=4)
  tissue uptake at 1 h: 0.03 ± 0.01 %ID/g
[2]; Sprague Dawley, rat, 2.3 nmole, total radioactivity, Pancreas, healthy rats, intravenous, 60 min post-injection (n=4)
  tissue uptake at 1 h: 0.05 ± 0.01 %ID/g
[2]; Sprague Dawley, rat, 2.3 nmole, total radioactivity, Skin, healthy rats, intravenous, 60 min post-injection (n=4)
  tissue uptake at 1 h: 0.01 ± 0.01 %ID/g
[2]; Sprague Dawley, rat, 2.3 nmole, total radioactivity, Small intestine, healthy rats, intravenous, 60 min post-injection (n=4)
  tissue uptake at 1 h: 0.37 ± 0.07 %ID/g
[2]; Sprague Dawley, rat, 2.3 nmole, total radioactivity, Spleen, healthy rats, intravenous, 60 min post-injection (n=4)
  tissue uptake at 1 h: 0.1 ± 0.02 %ID/g
[2]; Sprague Dawley, rat, 2.3 nmole, total radioactivity, Stomach, healthy rats, intravenous, 60 min post-injection (n=4)
  tissue uptake at 1 h: 0.11 ± 0.01 %ID/g
[2]; Sprague Dawley, rat, 2.3 nmole, total radioactivity, Thymus, healthy rats, intravenous, 60 min post-injection (n=4)
  tissue uptake at 1 h: 0.06 ± 0.02 %ID/g
[2]; Sprague Dawley, rat, 2.3 nmole, total radioactivity, Thyroid, healthy rats, intravenous, 60 min post-injection (n=4)
  tissue uptake at 1 h: 0.08 ± 0.03 %ID/g
[2]; Sprague Dawley, rat, 2.3 nmole, total radioactivity, Urine, healthy rats, intravenous, 60 min post-injection (n=4), read-out: Uptake
  excreta dose per gram or mL at 1 h: 22.1 ± 13.2 %ID/g
[2]; Sprague Dawley, rat, whole blood, 2.3 nmole, total radioactivity, Blood, healthy rats, intravenous, 60 min post-injection (n=4)
  tissue uptake at 1 h: 0.33 ± 0.11 %ID/g
[2]; at the current dosage tested, rats
  signs of toxicity or other adverse effects: no signs of toxicity or other adverse effects were observed
[2]; healthy rats
  brain uptake: low
  route of clearance: renal excretion is the predominant route of clearance
  uptake in the hepatic and gastrointestinal regions: low uptake; also recorded: very low
Acute cardiac cell death; at 1 hr post-injection
  average radioactivity at the infarct site: above 4.0 % ID/g
Acute cardiac cell death; at 2 hr after injection (n=3)
  infarct-to-lung ratio: 4.8±0.4
  infarct-to-muscle ratio: 12.2±1.3
Acute cardiac cell death; dynamic images, as early as
  time after injection at which focal uptake was seen at the infarct: 10 min
Acute cardiac cell death; rat, in vivo
  average radioactivity at the infarct site: less than 1.0 % ID/g
  retention / washout of radioactivity in the infarct: accompanied with a washout
AMI; at 24 hr compared with 2 hr post infarction
  decline of signal-to-background ratio in autoradiographs: 32%
AMI; at 48 hr compared with 2 hr post infarction
  decline of signal-to-background ratio in autoradiographs: 43%
